Measured values from patent US10488411B2, “Inflammasome activation in myelodysplastic syndromes” (H. LEE MOFFITT CANCER CENTER AND RESEARCH INSTITUTE, INC., priority 2015, dated 2019).

Columns and labels:
[1] = system: pyroptosis-related gene expression; experiment: qPCR of pyroptosis-related gene expression in lower-risk MDS BM-MNC; format: cell-based, human; details: lower-risk MDS BM-MNC (n=5), 24 hours, versus autologous BM plasma alone
Description: Real-time quantitative PCR. RNA was isolated from BM-MNC using the RNeasy Mini Kit (Qiagen). cDNA was produced using the iScript cDNA Synthesis Kit (Bio-Rad). Sequences for primers can be found in Table 1. GAPDH mRNA was used for transcript normalization. cDNA was amplified using the iQ SYBR Green Supermix and the CFX96 Real-Time PCR Detection System (Bio-Rad). PCR conditions were as follows: 10 minutes at 95° C., followed by 40 cycles of amplification (15 seconds at 95° C. and 1 minute at 60° C.). Relative gene expression was calculated using the −2^ΔΔCt method.

[2] = system: MDS BM-MNC; experiment: Pyroptosis flow cytometry panel (a-caspase-1+/annexin-V+) in MDS BM-MNC incubated with autologous BM plasma; format: cell-based, human
Description: Pyroptosis flow cytometry panel. For human samples, treated and untreated BM-MNC were incubated overnight in IMDM, supplemented with 10% autologous BM plasma. Subsequently, cells were harvested, washed twice in 1×PBS, and stained with LIVE/DEAD Violet fluorescent reactive dye according to the manufacturer's protocol (Life Technologies). Cells were resuspended in 1×PBS with 2% BSA, and incubated at room temperature for 15 minutes to block non-specific binding. After washing, cells were stained with 30× FAM-FLICA® Caspase-1 and Caspase-3/7 solution at a ratio of 1:30 for 2 hours at 37° C. Cells were washed and stained for cell surface receptors using CD38:PE-CF594, CD33:BV711, CD34:APC (BD Biosciences), and CD71:PE-Cyanine7 (eBioscience). All antibodies were diluted 1:20, and cells were stained for 30 minutes at 4° C. Cells were washed, resuspended in 1× binding buffer, and stained with Annexin-V:Cy5.5 at a dilution of 1:20 for 15 minutes at room temperature (BD Biosciences). 1× binding buffer was added to a final volume of 400 μL. Sample acquisitions were carried out using a BD LSR II flow cytometer and FACSDiva software (BD Biosciences). Calibration of the flow cytometer was carried out prior to each experiment using Rainbow Mid-Range Fluorescent Particles (BD Biosciences). To establish fluorescence compensation settings, ArC Amine Reactive Compensation Beads were used for LIVE/DEAD Violet staining (Life Technologies), and BD CompBead Plus Anti-Mouse Ig κ/Negative Control (BSA) Compensation Plus Particles were used for surface receptor conjugates (BD Biosciences). Data were analyzed using FlowJo 9.7.5 software (FlowJo, LLC, Ashland, Oreg.).

- MDSC fraction ([2]; short-term treatment of MDS BM-MNC): significantly reduced
B1: CD33-IgG1: S100A9 high-affinity chimeric (CD33-IgG1) decoy receptor (protein)
chain: DPNFWLQVQESVTVQEGLCVLVPCTFFHPIPYYDKNSPVHGYWFREGAIISRDSPVATNKLDQEVQEETQGRFRLLGDPSRNNCSLSIVDARRRDNGSYFFRMERGSTKYSYKSPQLSVHVTDLTHRPKILIPGTLEPGHSKNLTCSVSWACEQGTPPIFSWLSAAPTSLGPRTTHSSVLIITPRPQDHGTNLTCQVKFAGAGVTTERTIQLNVTYVPQNPTTGIFPGDGSGKQETRAGVVH
modifications: left off: a dimerising Fc or GST
- CASP3 expression [1]: markedly reduced
- expression of CASP1 [1]: reduced
- expression of IL-1β [1]: reduced
- expression of IL-18 [1]: reduced
- expression of NLRP3 [1]: reduced
- reduction of fraction of pyroptotic cells, maximum lineage-specific change, CD33+ cells ([2]; CD33+ immature myeloids, 0.5 μg CD33-IgG1 or 0.1 μM IRAK4 inhibitor, 24 hours, autologous BM plasma): 68%
- reduction of fraction of pyroptotic cells, maximum lineage-specific change, CD71+ cells ([2]; CD71+ erythroids, 0.5 μg CD33-IgG1 or 0.1 μM IRAK4 inhibitor, 24 hours, autologous BM plasma): 64%
- fraction of pyroptotic cells across all lineages studied ([2]; MDS BM-MNC (n=4) with autologous BM plasma, 0.5 μg CD33-IgG1 or 0.1 μM IRAK4 inhibitor, 24 hours): marked reduction
- reduction of fraction of pyroptotic cells, maximum lineage-specific change, progenitor cells ([2]; progenitor cells (CD34+CD38+), 0.5 μg CD33-IgG1 or 0.1 μM IRAK4 inhibitor, 24 hours, autologous BM plasma): 23%
- reduction of fraction of pyroptotic cells, maximum lineage-specific change, stem cells ([2]; stem cells (CD34+CD38-), 0.5 μg CD33-IgG1 or 0.1 μM IRAK4 inhibitor, 24 hours, autologous BM plasma): 44%
